Assay results: the RNAGym collection of RNA variant scans (doi:10.1021/acssynbio.7b00057)

B1: Pistol ribozyme (parent)
chain: GGGUCGUUGUUCCAUAAUCGCGUGGAUAUGGCACGCAAGUUUCUACCGGGCACCGUAAAUGUCCGACUGGAGCCGUUCGGGCGGCUAUAAACAGACCUCAGGCCCGAAGCGUGGCGGCACCUGCCGCCGGUGGUAAAAAAGAUCGGAAGAGCACACGUCU

Variants of: B1
Assay: aptazyme ON/OFF ratio, guanine; higher = stronger switching; co-transcriptional cleavage with and without guanine

| Variant | aptazyme ON/OFF ratio |
| --- | --- |
| GGGUCGCGGCAGUAUAAUCGCGUGGAUAUGGCACGCAAGUUUCUACCGGGCACCGUAAAUGUCCGACUGGAGCCGUUCGGGCGGCUAUAAACAGACCUCAGGCCCGAAGCGUGGCGGCACCUGCCGCCGGUGGUAAAAAAGAUCGGAAGAGCACACGUCU [U7C U8G U10C U11A C12G C13U] | 1.08 |
| GGGUCGCGGCAGCAUAAUCGCGUGGAUAUGGCACGCAAGUUUCUACCGGGCACCGUAAAUGUCCGACUGGAGCCGUUCGGGCGGCUAUAAACAGACCUCAGGCCCGAAGCGUGGCGGCACCUGCCGCCGGUGGUAAAAAAGAUCGGAAGAGCACACGUCU [U7C U8G U10C U11A C12G] | 1.2 |
| GGGUCGCGGCAACAUAAUCGCGUGGAUAUGGCACGCAAGUUUCUACCGGGCACCGUAAAUGUCCGACUGGAGCCGUUCGGGCGGCUAUAAACAGACCUCAGGCCCGAAGCGUGGCGGCACCUGCCGCCGGUGGUAAAAAAGAUCGGAAGAGCACACGUCU [U7C U8G U10C U11A C12A] | 2.52 |
| GGGUCGCGGCAUCAUAAUCGCGUGGAUAUGGCACGCAAGUUUCUACCGGGCACCGUAAAUGUCCGACUGGAGCCGUUCGGGCGGCUAUAAACAGACCUCAGGCCCGAAGCGUGGCGGCACCUGCCGCCGGUGGUAAAAAAGAUCGGAAGAGCACACGUCU [U7C U8G U10C U11A C12U] | 3.58 |
| GGGUCGCGGCUUCAUAAUCGCGUGGAUAUGGCACGCAAGUUUCUACCGGGCACCGUAAAUGUCCGACUGGAGCCGUUCGGGCGGCUAUAAACAGACCUCAGGCCCGAAGCGUGGCGGCACCUGCCGCCGGUGGUAAAAAAGAUCGGAAGAGCACACGUCU [U7C U8G U10C C12U] | 1.38 |
| GGGUCGCGGCUGCAUAAUCGCGUGGAUAUGGCACGCAAGUUUCUACCGGGCACCGUAAAUGUCCGACUGGAGCCGUUCGGGCGGCUAUAAACAGACCUCAGGCCCGAAGCGUGGCGGCACCUGCCGCCGGUGGUAAAAAAGAUCGGAAGAGCACACGUCU [U7C U8G U10C C12G] | 2.01 |
| GGGUCGCGGCUUGAUAAUCGCGUGGAUAUGGCACGCAAGUUUCUACCGGGCACCGUAAAUGUCCGACUGGAGCCGUUCGGGCGGCUAUAAACAGACCUCAGGCCCGAAGCGUGGCGGCACCUGCCGCCGGUGGUAAAAAAGAUCGGAAGAGCACACGUCU [U7C U8G U10C C12U C13G] | 1.3 |
| GGGUCGCGGCUUAAUAAUCGCGUGGAUAUGGCACGCAAGUUUCUACCGGGCACCGUAAAUGUCCGACUGGAGCCGUUCGGGCGGCUAUAAACAGACCUCAGGCCCGAAGCGUGGCGGCACCUGCCGCCGGUGGUAAAAAAGAUCGGAAGAGCACACGUCU [U7C U8G U10C C12U C13A] | 1.61 |
| GGGUCGCGGCUUUAUAAUCGCGUGGAUAUGGCACGCAAGUUUCUACCGGGCACCGUAAAUGUCCGACUGGAGCCGUUCGGGCGGCUAUAAACAGACCUCAGGCCCGAAGCGUGGCGGCACCUGCCGCCGGUGGUAAAAAAGAUCGGAAGAGCACACGUCU [U7C U8G U10C C12U C13U] | 2.3 |
| GGGUCGCGGCUCUAUAAUCGCGUGGAUAUGGCACGCAAGUUUCUACCGGGCACCGUAAAUGUCCGACUGGAGCCGUUCGGGCGGCUAUAAACAGACCUCAGGCCCGAAGCGUGGCGGCACCUGCCGCCGGUGGUAAAAAAGAUCGGAAGAGCACACGUCU [U7C U8G U10C C13U] | 1.54 |
| GGGUCGCGGCUCAAUAAUCGCGUGGAUAUGGCACGCAAGUUUCUACCGGGCACCGUAAAUGUCCGACUGGAGCCGUUCGGGCGGCUAUAAACAGACCUCAGGCCCGAAGCGUGGCGGCACCUGCCGCCGGUGGUAAAAAAGAUCGGAAGAGCACACGUCU [U7C U8G U10C C13A] | 1.86 |
| GGGUCGCGGCUCGAUAAUCGCGUGGAUAUGGCACGCAAGUUUCUACCGGGCACCGUAAAUGUCCGACUGGAGCCGUUCGGGCGGCUAUAAACAGACCUCAGGCCCGAAGCGUGGCGGCACCUGCCGCCGGUGGUAAAAAAGAUCGGAAGAGCACACGUCU [U7C U8G U10C C13G] | 2.71 |
| GGGUCGCGGCACCAUAAUCGCGUGGAUAUGGCACGCAAGUUUCUACCGGGCACCGUAAAUGUCCGACUGGAGCCGUUCGGGCGGCUAUAAACAGACCUCAGGCCCGAAGCGUGGCGGCACCUGCCGCCGGUGGUAAAAAAGAUCGGAAGAGCACACGUCU [U7C U8G U10C U11A] | 2.93 |
| GGGUCGCGGCCCCAUAAUCGCGUGGAUAUGGCACGCAAGUUUCUACCGGGCACCGUAAAUGUCCGACUGGAGCCGUUCGGGCGGCUAUAAACAGACCUCAGGCCCGAAGCGUGGCGGCACCUGCCGCCGGUGGUAAAAAAGAUCGGAAGAGCACACGUCU [U7C U8G U10C U11C] | 3.48 |
| GGGUCGCGGCUAUAUAAUCGCGUGGAUAUGGCACGCAAGUUUCUACCGGGCACCGUAAAUGUCCGACUGGAGCCGUUCGGGCGGCUAUAAACAGACCUCAGGCCCGAAGCGUGGCGGCACCUGCCGCCGGUGGUAAAAAAGAUCGGAAGAGCACACGUCU [U7C U8G U10C C12A C13U] | 1.67 |
| GGGUCGCGGCUGUAUAAUCGCGUGGAUAUGGCACGCAAGUUUCUACCGGGCACCGUAAAUGUCCGACUGGAGCCGUUCGGGCGGCUAUAAACAGACCUCAGGCCCGAAGCGUGGCGGCACCUGCCGCCGGUGGUAAAAAAGAUCGGAAGAGCACACGUCU [U7C U8G U10C C12G C13U] | 1.35 |
| GGGUCGCGGCUGAAUAAUCGCGUGGAUAUGGCACGCAAGUUUCUACCGGGCACCGUAAAUGUCCGACUGGAGCCGUUCGGGCGGCUAUAAACAGACCUCAGGCCCGAAGCGUGGCGGCACCUGCCGCCGGUGGUAAAAAAGAUCGGAAGAGCACACGUCU [U7C U8G U10C C12G C13A] | 1.11 |
| GGGUCGCGGCUGGAUAAUCGCGUGGAUAUGGCACGCAAGUUUCUACCGGGCACCGUAAAUGUCCGACUGGAGCCGUUCGGGCGGCUAUAAACAGACCUCAGGCCCGAAGCGUGGCGGCACCUGCCGCCGGUGGUAAAAAAGAUCGGAAGAGCACACGUCU [U7C U8G U10C C12G C13G] | 1.13 |
